Substitutions are numbered along the chain they refer to.
T1: human IL-23 (human, UniProt Q9NPF7 20-189; P29460 23-328)
T1 construct: Heterodimer p19/p40; in the ELISA captured on the plate through a biotinylated anti-p40 antibody (clone C8.6); also called cytokine IL-23 (eBioscience, 34-8239-85)
T1 sequence (looked up) 1: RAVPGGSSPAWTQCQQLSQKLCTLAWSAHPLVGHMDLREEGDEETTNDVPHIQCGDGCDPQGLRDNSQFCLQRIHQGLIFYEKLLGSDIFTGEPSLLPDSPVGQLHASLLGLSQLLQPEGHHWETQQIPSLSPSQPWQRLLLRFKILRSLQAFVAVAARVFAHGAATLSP
T1 sequence (looked up) 2: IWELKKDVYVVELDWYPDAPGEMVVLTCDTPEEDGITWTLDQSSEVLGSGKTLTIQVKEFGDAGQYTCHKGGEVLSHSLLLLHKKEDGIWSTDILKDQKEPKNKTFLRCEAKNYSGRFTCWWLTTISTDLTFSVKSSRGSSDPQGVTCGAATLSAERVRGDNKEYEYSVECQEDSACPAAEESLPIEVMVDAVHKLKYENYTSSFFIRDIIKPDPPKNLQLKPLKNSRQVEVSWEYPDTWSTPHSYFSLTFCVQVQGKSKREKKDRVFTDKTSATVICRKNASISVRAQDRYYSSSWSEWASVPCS

B1: SEQ ID NO 38 (designed binder)
chain: GSIEQIQKFIASIQESIARIQKSIYAMTGGSGGSGGGSIEQIQKQIAAIQKQIAAIQKQIYAMTGSGGGGSGGSIEQIQKQITAIARQIVAIIVQITAMTP
notes: Alphabody, AC12 library clone
B2: SEQ ID NO 23 (designed binder)
chain: B1 chain with S16C, S23T, T83K, A86R, R87T, V90F, I93F, V94R, T97Y
notes: Alphabody, AC12 library clone
B3: SEQ ID NO 13 (designed binder)
chain: B1 chain with F9R, S12P, S16C, R19F, S23L, A86G, V90M, I93F, V94I, T97W
notes: Alphabody, AC12 library clone
B4: SEQ ID NO 20 (designed binder)
chain: B1 chain with F9V, S12R, S16V, R19S, S23Y, T83G, A86V, R87T, V90L, V94S
notes: Alphabody, AC12 library clone
B5: SEQ ID NO 6 (designed binder)
chain: GSIEQIQKGIALIQEWIAWIQKSIYAMTGGSGGSGGGSIEQIQKQIAAIQKQIAAIQKQIYAMTGSGGGGSGGSIEQIQKQILAISLQIMAILEQIMAMTP
notes: Alphabody, AC12 library clone
B6: SEQ ID NO 29 (designed binder)
chain: B1 chain with F9L, S12R, R19M, S23K, T83I, R87K, V90L, I93V, V94S, T97K
notes: Alphabody, AC12 library clone
B7: SEQ ID NO 73 (designed binder)
chain: B1 chain with S16C, R19S, S23V, T83G, R87A, V90I, I93V, V94E, T97V
notes: Alphabody, AC12 library clone
B8: SEQ ID NO 71 (designed binder)
chain: B1 chain with F9P, S12A, S16K, S23R, T83M, A86N, V90L, I93L, V94R, T97L
notes: Alphabody, AC12 library clone
B9: SEQ ID NO 4 (designed binder)
chain: B5 chain with G9T, L12M, W16Y, S23K, L83R, S86V, L87G, E94R, M97T
notes: Alphabody, AC12 library clone
B10: SEQ ID NO 65 (designed binder)
chain: B5 chain with G9T, L12K, W16R, S23V, L83K, L87Y, M90I, L93M, E94R, M97L
notes: Alphabody, AC12 library clone
B11: SEQ ID NO 33 (designed binder)
chain: GSIEQIQKGIAPIQEMIASIQKVIYAMTGGSGGSGGGSIEQIQKQIAAIQKQIAAIQKQIYAMTGSGGGGSGGSIEQIQKQIMAIAFQIFAIMRQILAMTP
notes: Alphabody, AC12 library clone
B12: SEQ ID NO 27 (designed binder)
chain: B1 chain with F9W, S12Q, S16N, R19D, S23L, T83P, R87Y, V90L, V94R, T97S
notes: Alphabody, AC12 library clone
B13: SEQ ID NO 19 (designed binder)
chain: GSIEQIQKTIAAIQECIARIQKAIYAMTGGSGGSGGGSIEQIQKQIAAIQKQIAAIQKQIYAMTGSGGGGSGGSIEQIQKQIRAIVSQISAILIQIGAMTP
notes: Alphabody, AC12 library clone
B14: SEQ ID NO 43 (designed binder)
chain: GSIEQIQKLIASIQEYIATIQKLIYAMTGGSGGSGGGSIEQIQKQIAAIQKQIAAIQKQIYAMTGSGGGGSGGSIEQIQKQISAIMIQINAILGQIFAMTP
notes: Alphabody, AC12 library clone
B15: SEQ ID NO 9 (designed binder)
chain: B14 chain with L9K, S12T, T19Y, L23F, S83K, M86L, I87G, N90G, L93I, F97W
notes: Alphabody, AC12 library clone
B16: SEQ ID NO 2 (designed binder)
chain: GSIEQIQKGIARIQEVIAKIQKGIYAMTGGSGGSGGGSIEQIQKQIAAIQKQIAAIQKQIYAMTGSGGGGSGGSIEQIQKQIVAITHQITAIIWQIWAMTP
notes: Alphabody, AC12 library clone
B17: SEQ ID NO 74 (designed binder)
chain: B1 chain with F9K, S12Y, S16M, R19L, S23G, T83S, R87A, V90S, V94K, T97M
notes: Alphabody, AC12 library clone
B18: SEQ ID NO 40 (designed binder)
chain: B1 chain with F9G, S12I, S16T, R19Y, V90T, V94A, T97F
notes: Alphabody, AC12 library clone
B19: SEQ ID NO 8 (designed binder)
chain: B14 chain with L9Y, S12P, Y16I, T19K, S83G, M86I, I87S, N90G, F97Y
notes: Alphabody, AC12 library clone
B20: SEQ ID NO 3 (designed binder)
chain: B14 chain with L9R, S12F, Y16T, T19W, L23N, M86A, I87R, N90R
notes: Alphabody, AC12 library clone
B21: SEQ ID NO 50 (designed binder)
chain: B1 chain with F9A, S12K, S16T, R19F, R87G, V90Y, I93L, V94Q, T97F
notes: Alphabody, AC12 library clone
B22: SEQ ID NO 18 (designed binder)
chain: B13 chain with A12S, C16V, R19A, A23Y, R83A, V86G, S90I, L93V, I94R, G97R
notes: Alphabody, AC12 library clone
B23: SEQ ID NO 26 (designed binder)
chain: B14 chain with S12V, T19L, L23K, S83K, M86A, I87T, N90S, L93I, G94R
notes: Alphabody, AC12 library clone
B24: SEQ ID NO 42 (designed binder)
chain: B14 chain with L9V, S12P, T19I, L23Y, I87R, N90Y, L93I, G94S, F97Q
notes: Alphabody, AC12 library clone
B25: SEQ ID NO 64 (designed binder)
chain: B16 chain with G9V, V16P, K19V, G23M, V83S, T86R, H87S, T90L, W94R, W97F
notes: Alphabody, AC12 library clone
B26: SEQ ID NO 22 (designed binder)
chain: B1 chain with F9M, S12P, S16L, S23D, T83G, A86T, V90L, I93L, T97G
notes: Alphabody, AC12 library clone
B27: SEQ ID NO 67 (designed binder)
chain: B11 chain with G9V, P12W, M16S, V23R, M83Q, F87N, F90T, M93V, L97I
notes: Alphabody, AC12 library clone
B28: SEQ ID NO 70 (designed binder)
chain: B11 chain with G9C, P12F, M16R, S19G, V23R, M83F, A86G, F87K, M93V, R94K
notes: Alphabody, AC12 library clone
B29: SEQ ID NO 31 (designed binder)
chain: B13 chain with A12R, C16G, R19V, A23L, S87R, S90T, L93M, I94T, G97F
notes: Alphabody, AC12 library clone
B30: SEQ ID NO 25 (designed binder)
chain: B13 chain with T9Y, A12R, C16K, R19Y, A23M, R83I, V86G, S90L, I94D, G97Y
notes: Alphabody, AC12 library clone
B31: SEQ ID NO 59 (designed binder)
chain: B1 chain with F9W, S12L, S16K, S23D, T83N, R87G, V90L, I93A, V94T, T97M
notes: Alphabody, AC12 library clone
B32: SEQ ID NO 36 (designed binder)
chain: B1 chain with S12P, S16Y, R19A, S23I, T83A, R87S, V90K, I93V, V94T, T97V
notes: Alphabody, AC12 library clone
B33: SEQ ID NO 5 (designed binder)
chain: B1 chain with S12N, S16L, R19C, S23N, R87S, V90Y, I93V, V94A
notes: Alphabody, AC12 library clone
B34: SEQ ID NO 10 (designed binder)
chain: B16 chain with G9K, R12V, K19G, V83S, T86I, H87I, I93V, W94K, W97M
notes: Alphabody, AC12 library clone
B35: SEQ ID NO 47 (designed binder)
chain: B13 chain with T9K, A12G, C16V, R19L, A23F, V86S, S90Q, L93V, I94L, G97L
notes: Alphabody, AC12 library clone
B36: SEQ ID NO 61 (designed binder)
chain: B1 chain with F9R, S12G, S16Y, R19K, T83S, A86S, I93V, V94S, T97L
notes: Alphabody, AC12 library clone

Target: T1, human IL-23
Assay: phage ELISA; IL-23 captured by anti-p40 antibody
Description: The set-up of the ELISA was as follows. Neutravidin was immobilized on the plate at a concentration of 0.010 mg/ml in PBS (0.100 ml) for 1 hour at room temperature (RT). Plates were washed 5 times with PBS containing 0.05% Tween 20 (PBST) for 5 min. Subsequently, 0.1 ml Biotinylated anti-p40 antibody (100 nM) was added to the plates in PBS containing 0.1% BSA and incubated overnight at 4° C. or at RT for 1 hour. After incubation, plates were washed 5 times with PBST and blocked with PBS containing 0.1% BSA and 0.5% gelatin (0.120 ml/well) for at least 1 hour at room temperature or overnight at 4° C. After washing 5 times with PBST, 100 nM IL-23 (target) was added to 0.1 ml PBS, 0.1% BSA. For individual negative controls no IL-23 was added (background).
In the meantime, the bacteria plates were centrifuged at 1700 rpm for 10 min to pellet the bacteria. Plates with the immobilized IL-23 were washed 5 times with PBST and 0.050 ml of PBS with 0.2% BSA were added to the plate together with 0.050 ml of the bacterial culture supernatant containing phage. Plates were incubated for 1 to 1.5 hours at room temperature while shaking. Shaking of the plates enhanced the ELISA signals.

Binding result, binds:
B1, B2, B3, B4, B5, B6, B7, B8, B9, B10, B11, B12, B13, B14, B15, B16, B17, B18, B19, B20, B21, B22, B23, B24, B25, B26, B27, B28, B29, B30, B31, B32, B33, B34, B35, B36
